Reference: patent US7977317B2, “Compositions and methods for modulating blood-brain barrier transport” (Raptor Pharmaceutical Inc., priority 2001, dated 2011)

How the values were obtained:
[1] = test system: mAb L235; assay: BIAcore analysis of native and boiled p97 on immobilized mAb L235; format: physicochemical; conditions: in Ringer/Hepes solution, boiled 5 to 30 min (FIG. 13b)
Protocol: FIG. 13 illustrates the transcytosis and accumulation of p97 and transferrin in BBCEC monolayers. FIG. 13a, Transcytosis experiments were performed at 37° C. (solid bars) or 4° C. (white bars). [^125I]-p97 or bovine [^125I]-holo-transferrin (1 mg/ml) was added to the upper side of the cell-covered filter. At the end of the experiment, radiolabelled proteins were measured in the lower chamber of each well by TCA precipitation (n=4). Controls were also performed at 37° C. with denatured [^125I]-p97 or bovine [^125I]-holo-transferrin boiled for 30 min (grey bars) (n=2); FIG. 13b, Biospecific interaction analysis was performed with native or boiled p97 for the indicated times. MAb L235 (5 μg) was immobilized on a sensor chip (SM5) using standard procedures incorporating NHS, EDC and ethanolamine. Native and boiled p97 (5 to 30 min) diluted at 1 mg/ml in Ringer/Hepes was cooled and injected into the BIAcore. The surface plasmon resonance response obtained for native p97 and boiled p97 was plotted (in relative units (RU)) as a function of time; FIG. 13c, The accumulation of both proteins into BBEC cells were also measured. Briefly, after incubation at 37° C. (solid bars) or 4° C. […] Accumulation of both denatured proteins (grey bars) was also measured at 37° C. Filters were then removed, and the radioactivity associated with the cells was quantified (n=3). […]

[2] = test system: endogenous melanotransferrin; assay: RT-PCR after p97 treatment in U-87 cells: endogenous melanotransferrin; format: cell-based, human; conditions: RT-PCR (FIG. 36)
Protocol: FIG. 36. Effect of p97 and RAP treatments in U-87 cells (RT-PCR) on endogenous melanotransferrin. Cells (2×105) were plated onto six-multiwell microplates and grown at 37° C. under 5% CO2 with optimal culture medium supplemented with serum for 4 days. Treatment with p97 and RAP was performed in serum free medium for 72 hours. RNA isolation and RT-PCR were performed as described in the Examples. The amplified PCR products were electrophoresed on a 2% agarose gel and visualized under ultraviolet light. (n=1).
RNA extraction. Cells in six-wells plate or in 75 cm^2 plastic tissue culture flasks were grown at 37° C. under 5% CO2 with optimal culture medium to 80-90% confluence. Total cellular RNA was preserved in Trizol (Gibco BRL, Burlington, ON). The solution are frozen at −80° C. until extraction. The solution was defroze and mixed with 5:1 chloroform for 3 minutes at room temperature. The suspension was centrifugated at 12000 g at 4° C. The clear supernatant was collected then mixed with 1:1 of isopropanol for 15 minutes at room temperature. The mix was centrifugated at 12000×g for 10 min at 4° C. The pellets was washed with 70% ethanol and dried before resuspended in RNase Free H2O.
RT-PCR. RT-PCR was performed for members of the LDL-R family: LRP, LRP1B, megalin, LDL, VLDL, LRP8, LR11, RAP, LR3, cubulin and P97. […]

[3] = molecular target: LRP (Homo sapiens, UniProt Q07954); conditions: Tables 1-3; cited from earlier work
Sequence of LRP (Q07954 20-4544): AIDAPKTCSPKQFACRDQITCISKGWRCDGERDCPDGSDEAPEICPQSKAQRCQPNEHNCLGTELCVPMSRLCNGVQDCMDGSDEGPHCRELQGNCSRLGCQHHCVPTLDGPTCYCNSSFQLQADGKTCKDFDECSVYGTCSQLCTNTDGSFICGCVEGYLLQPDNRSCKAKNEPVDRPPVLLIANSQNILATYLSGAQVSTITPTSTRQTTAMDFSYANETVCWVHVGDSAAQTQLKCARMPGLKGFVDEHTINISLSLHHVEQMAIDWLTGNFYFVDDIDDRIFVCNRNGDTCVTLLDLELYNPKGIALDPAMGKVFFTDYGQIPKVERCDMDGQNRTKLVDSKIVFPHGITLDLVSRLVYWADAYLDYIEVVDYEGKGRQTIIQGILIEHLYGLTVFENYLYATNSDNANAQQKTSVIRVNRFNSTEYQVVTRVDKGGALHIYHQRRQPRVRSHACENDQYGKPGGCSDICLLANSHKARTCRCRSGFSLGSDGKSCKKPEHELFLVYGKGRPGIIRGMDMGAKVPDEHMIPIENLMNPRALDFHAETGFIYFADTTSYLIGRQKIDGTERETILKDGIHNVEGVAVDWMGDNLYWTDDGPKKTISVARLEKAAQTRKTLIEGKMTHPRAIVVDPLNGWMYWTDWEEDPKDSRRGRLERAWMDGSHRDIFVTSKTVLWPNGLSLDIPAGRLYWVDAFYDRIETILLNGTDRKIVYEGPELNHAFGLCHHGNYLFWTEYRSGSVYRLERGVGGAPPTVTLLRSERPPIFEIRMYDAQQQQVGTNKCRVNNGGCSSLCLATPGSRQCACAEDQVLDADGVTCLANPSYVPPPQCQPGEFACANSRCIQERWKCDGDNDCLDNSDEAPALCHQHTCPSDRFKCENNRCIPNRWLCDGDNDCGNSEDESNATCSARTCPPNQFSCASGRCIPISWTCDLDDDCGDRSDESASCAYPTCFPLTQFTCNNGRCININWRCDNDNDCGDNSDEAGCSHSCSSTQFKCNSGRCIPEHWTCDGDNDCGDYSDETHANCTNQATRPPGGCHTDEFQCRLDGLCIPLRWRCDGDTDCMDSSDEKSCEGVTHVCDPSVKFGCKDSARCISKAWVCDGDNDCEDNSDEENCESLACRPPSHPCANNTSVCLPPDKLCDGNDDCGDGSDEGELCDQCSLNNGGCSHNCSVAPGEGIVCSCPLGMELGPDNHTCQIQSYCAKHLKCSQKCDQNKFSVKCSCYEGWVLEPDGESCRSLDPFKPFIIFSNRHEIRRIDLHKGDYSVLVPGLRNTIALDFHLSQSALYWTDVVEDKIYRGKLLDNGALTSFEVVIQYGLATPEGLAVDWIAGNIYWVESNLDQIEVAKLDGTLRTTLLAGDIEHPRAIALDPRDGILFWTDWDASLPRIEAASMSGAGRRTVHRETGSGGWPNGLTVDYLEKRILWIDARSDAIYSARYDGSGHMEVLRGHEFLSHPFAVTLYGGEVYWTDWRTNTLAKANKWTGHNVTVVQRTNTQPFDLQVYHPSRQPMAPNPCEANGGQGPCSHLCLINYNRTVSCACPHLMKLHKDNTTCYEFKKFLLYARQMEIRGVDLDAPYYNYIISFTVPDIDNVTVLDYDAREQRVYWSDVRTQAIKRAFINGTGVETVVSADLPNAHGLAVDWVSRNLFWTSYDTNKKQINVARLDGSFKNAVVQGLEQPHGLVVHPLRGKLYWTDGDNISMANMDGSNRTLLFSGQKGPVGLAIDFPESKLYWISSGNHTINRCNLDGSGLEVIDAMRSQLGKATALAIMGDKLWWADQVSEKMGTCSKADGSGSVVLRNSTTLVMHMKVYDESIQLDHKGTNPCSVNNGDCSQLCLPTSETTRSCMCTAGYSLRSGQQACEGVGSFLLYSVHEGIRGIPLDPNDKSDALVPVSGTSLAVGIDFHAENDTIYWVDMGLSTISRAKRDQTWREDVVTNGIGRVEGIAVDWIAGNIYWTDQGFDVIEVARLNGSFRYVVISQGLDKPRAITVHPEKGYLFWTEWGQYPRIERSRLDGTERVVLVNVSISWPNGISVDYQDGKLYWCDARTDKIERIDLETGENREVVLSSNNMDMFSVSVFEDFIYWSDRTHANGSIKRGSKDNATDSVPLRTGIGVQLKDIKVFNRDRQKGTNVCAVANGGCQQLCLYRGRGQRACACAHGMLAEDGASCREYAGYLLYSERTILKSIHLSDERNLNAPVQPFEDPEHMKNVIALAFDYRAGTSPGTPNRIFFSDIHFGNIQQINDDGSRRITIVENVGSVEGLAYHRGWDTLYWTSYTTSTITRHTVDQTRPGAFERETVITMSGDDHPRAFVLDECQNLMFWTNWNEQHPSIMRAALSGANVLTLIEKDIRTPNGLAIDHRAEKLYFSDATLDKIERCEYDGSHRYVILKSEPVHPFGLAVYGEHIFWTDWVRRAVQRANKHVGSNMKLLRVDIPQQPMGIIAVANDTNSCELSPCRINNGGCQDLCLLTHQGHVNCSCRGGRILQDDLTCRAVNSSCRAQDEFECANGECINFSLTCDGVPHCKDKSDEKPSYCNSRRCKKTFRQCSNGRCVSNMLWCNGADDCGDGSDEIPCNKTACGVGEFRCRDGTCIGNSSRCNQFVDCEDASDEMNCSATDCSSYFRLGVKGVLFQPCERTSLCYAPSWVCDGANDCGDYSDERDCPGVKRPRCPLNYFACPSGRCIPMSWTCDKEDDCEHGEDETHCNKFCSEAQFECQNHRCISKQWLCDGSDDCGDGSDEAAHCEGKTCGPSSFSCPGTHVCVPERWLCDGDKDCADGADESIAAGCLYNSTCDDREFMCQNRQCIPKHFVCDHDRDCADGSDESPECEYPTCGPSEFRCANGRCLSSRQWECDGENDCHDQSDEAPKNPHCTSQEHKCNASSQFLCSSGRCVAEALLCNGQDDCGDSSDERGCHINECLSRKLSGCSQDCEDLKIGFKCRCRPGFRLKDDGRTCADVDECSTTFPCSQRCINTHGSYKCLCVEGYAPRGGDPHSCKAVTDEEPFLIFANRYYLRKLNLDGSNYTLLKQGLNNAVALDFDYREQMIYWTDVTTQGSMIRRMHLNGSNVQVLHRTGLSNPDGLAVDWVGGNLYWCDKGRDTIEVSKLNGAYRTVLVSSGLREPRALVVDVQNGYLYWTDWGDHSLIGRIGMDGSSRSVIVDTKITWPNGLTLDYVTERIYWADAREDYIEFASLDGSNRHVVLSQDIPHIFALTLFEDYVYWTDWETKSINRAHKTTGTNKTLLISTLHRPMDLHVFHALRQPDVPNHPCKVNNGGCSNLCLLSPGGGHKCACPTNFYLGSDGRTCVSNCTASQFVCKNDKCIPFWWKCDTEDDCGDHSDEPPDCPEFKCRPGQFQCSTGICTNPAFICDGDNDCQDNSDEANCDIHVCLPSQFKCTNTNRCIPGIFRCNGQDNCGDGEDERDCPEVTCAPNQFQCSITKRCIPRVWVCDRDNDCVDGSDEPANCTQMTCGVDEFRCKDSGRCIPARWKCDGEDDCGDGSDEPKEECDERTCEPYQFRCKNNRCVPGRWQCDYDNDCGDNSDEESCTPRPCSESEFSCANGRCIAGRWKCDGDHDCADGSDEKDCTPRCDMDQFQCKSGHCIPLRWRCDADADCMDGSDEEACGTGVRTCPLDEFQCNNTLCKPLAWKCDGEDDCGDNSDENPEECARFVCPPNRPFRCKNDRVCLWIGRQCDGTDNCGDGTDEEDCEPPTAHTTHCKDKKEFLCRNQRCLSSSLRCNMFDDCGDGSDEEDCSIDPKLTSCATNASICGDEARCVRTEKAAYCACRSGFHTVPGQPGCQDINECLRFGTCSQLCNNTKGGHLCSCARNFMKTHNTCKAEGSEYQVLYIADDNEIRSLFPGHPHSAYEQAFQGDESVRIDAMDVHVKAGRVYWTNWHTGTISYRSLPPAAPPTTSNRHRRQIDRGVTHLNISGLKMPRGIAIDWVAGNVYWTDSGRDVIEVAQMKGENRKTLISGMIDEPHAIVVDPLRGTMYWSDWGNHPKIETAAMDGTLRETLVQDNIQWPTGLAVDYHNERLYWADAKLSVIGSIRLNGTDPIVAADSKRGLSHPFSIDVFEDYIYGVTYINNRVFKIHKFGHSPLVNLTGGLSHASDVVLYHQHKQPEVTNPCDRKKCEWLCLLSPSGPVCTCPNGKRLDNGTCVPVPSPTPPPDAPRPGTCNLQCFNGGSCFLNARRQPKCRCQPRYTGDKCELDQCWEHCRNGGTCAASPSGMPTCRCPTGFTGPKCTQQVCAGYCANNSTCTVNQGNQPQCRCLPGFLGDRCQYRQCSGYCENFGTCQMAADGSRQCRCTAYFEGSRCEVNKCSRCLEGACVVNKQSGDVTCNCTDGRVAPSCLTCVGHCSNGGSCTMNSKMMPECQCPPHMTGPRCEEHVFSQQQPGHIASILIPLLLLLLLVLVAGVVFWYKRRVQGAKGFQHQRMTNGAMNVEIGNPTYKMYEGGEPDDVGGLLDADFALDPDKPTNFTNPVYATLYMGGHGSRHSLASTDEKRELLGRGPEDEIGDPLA

Molecule	Resistance to heat denaturation [1]	Expression of endogenous p97 [2]	Binding to LRP [3]
p97: recombinant human melanotransferrin (p97), provided by Synapse Technologies (protein, UniProt P08582 20-709, looked up) Melanotransferrin: GMEVRWCATSDPEQHKCGNMSEAFREAGIQPSLLCVRGTSADHCVQLIAAQEADAITLDGGAIYEAGKEHGLKPVVGEVYDQEVGTSYYAVAVVRRSSHVTIDTLKGVKSCHTGINRTVGWNVPVGYLVESGRLSVMGCDVLKAVSDYFGGSCVPGAGETSYSESLCRLCRGDSSGEGVCDKSPLERYYDYSGAFRCLAEGAGDVAFVKHSTVLENTDGKTLPSWGQALLSQDFELLCRDGSRADVTEWRQCHLARVPAHAVVVRADTDGGLIFRLLNEGQRLFSHEGSSFQMFSSEAYGQKDLLFKDSTSELVPIATQTYEAWLGHEYLHAMKGLLCDPNRLPPYLRWCVLSTPEIQKCGDMAVAFRRQRLKPEIQCVSAKSPQHCMERIQAEQVDAVTLSGEDIYTAGKTYGLVPAAGEHYAPEDSSNSYYVVAVVRRDSSHAFTLDELRGKRSCHAGFGSPAGWDVPVGALIQRGFIRPKDCDVLTAVSEFFNASCVPVNNPKNYPSSLCALCVGDEQGRNKCVGNSQERYYGYRGAFRCLVENAGDVAFVRHTTVFDNTNGHNSEPWAAELRSEDYELLCPNGARAEVSQFAACNLAQIPPHAVMVRPDTNIFTVYGLLDKAQDLFGDDHNKNGFKMFDSSNYHGQDLLFKDATVRAVPVGEKTTYRGWLGLDYVAALEGMSSQQC	resistant to heat denaturation	appears to induce its own expression	–
lactoferrin: lactoferrin (Lf), LRP ligand used as competitor (protein, UniProt P02788 20-710, looked up) Lactotransferrin: GRRRSVQWCAVSQPEATKCFQWQRNMRKVRGPPVSCIKRDSPIQCIQAIAENRADAVTLDGGFIYEAGLAPYKLRPVAAEVYGTERQPRTHYYAVAVVKKGGSFQLNELQGLKSCHTGLRRTAGWNVPIGTLRPFLNWTGPPEPIEAAVARFFSASCVPGADKGQFPNLCRLCAGTGENKCAFSSQEPYFSYSGAFKCLRDGAGDVAFIRESTVFEDLSDEAERDEYELLCPDNTRKPVDKFKDCHLARVPSHAVVARSVNGKEDAIWNLLRQAQEKFGKDKSPKFQLFGSPSGQKDLLFKDSAIGFSRVPPRIDSGLYLGSGYFTAIQNLRKSEEEVAARRARVVWCAVGEQELRKCNQWSGLSEGSVTCSSASTTEDCIALVLKGEADAMSLDGGYVYTAGKCGLVPVLAENYKSQQSSDPDPNCVDRPVEGYLAVAVVRRSDTSLTWNSVKGKKSCHTAVDRTAGWNIPMGLLFNQTGSCKFDEYFSQSCAPGSDPRSNLCALCIGDEQGENKCVPNSNERYYGYTGAFRCLAENAGDVAFVKDVTVLQNTDGNNNEAWAKDLKLADFALLCLDGKRKPVTEARSCHLAMAPNHAVVSRMDKVERLKQVLLHQQAKFGRNGSDCPDKFCLFQSETKNLLFNDNTECLARLHGKTTYEKYLGPQYVAGITNLKKCSTSPLLEACEFLRK	–	–	Yes
